The values below come from publication PMC4466390, “Canonical and Noncanonical Sites Determine NPT2A Binding Selectivity to NHERF1 PDZ1” (PLoS ONE, 2015).

The labels stand for the following.
B1: NHERF1 PDZ2 D183E (domain or fragment, human, UniProt O14745 133-300, looked up)
chain: NENEPREADKSHPEQRELRPRLCTMKKGPSGYGFNLHSDKSKPGQFIRSVEPDSPAEASGLRAQDRIVEVNGVCMEGKQHGDVVSAIRAGGDETKLLVVDRETDEFFKKCRVIPSQEHLNGPLPVPFTNGEIQKENSREALAEAALESPRPALVRSASSDTSEELNSQ
notes: Na+/H+ Exchanger Regulatory Factor-1 (NHERF1, EBP50), human, PDZ2 construct, residues 133-300 (mutation introduced into pET16-N1P2), Asp183Glu; also called Asp183Glu PDZ2; single PDZ2 mutant; source: E. coli BL21 (DE3), purified (Ni-NTA-agarose)
B2: NHERF1 PDZ2 N167H/D183E (domain or fragment, human, UniProt O14745 133-300, looked up)
chain: B1 chain with N35H
notes: Na+/H+ Exchanger Regulatory Factor-1 (NHERF1, EBP50), human, PDZ2 construct, residues 133-300 (mutations introduced into pET16-N1P2), Asn167His and Asp183Glu; also called Asn167His/Asp183Glu PDZ2; double PDZ2 mutant; source: E. coli BL21 (DE3), purified (Ni-NTA-agarose)
B3: NPT2A peptide (ligand titrated in ITC) (peptide)
peptide: ELPPATPSPRLALPAHHNATRL
notes: type II sodium-dependent phosphate co-transporter (NPT2A, SLC34A1), 22-residue carboxy-terminal fragment; Kept apart from m1 for that reason; also called ligand NPT2A; source: synthetic peptide
B4: rhodamine-labeled 22-residue carboxy-terminal NPT2A peptide (peptide)
peptide: {5(6)‑carboxytetramethylrhodamine}-ELPPATPSPRLALPAHHNATRL
notes: type II sodium-dependent phosphate co-transporter (NPT2A, SLC34A1), 22-residue carboxy-terminal fragment; also called labeled NPT2A peptide; source: synthetic peptide (solid phase, Fmoc; HPLC purified)

Conditions in all cases: both partners purified
For assay [1], the target named is B4. The assay can be described thus: fluorescence polarisation; solution phase direct binding, PDZ construct varied against 0.5 uM or 1 uM rhodamine-labeled NPT2A peptide; FP buffer (25 mM NaH2PO4, 10 mM NaCl, pH 7.4, 1 mM DTT, 0.1 mg/ml bovine IgG, 0.5 mM Thesit); 25°C; anisotropy fitted to a 1:1 complex. For orientation: Polarisation of emitted light reports the rotation of a fluorescent probe.

The target in the next assay is T1, NHERF1 PDZ1 (1–120) (human, UniProt O14745 1-120).
T1 construct: the methods describe PDZ1 (11-120) and PDZ1 (1-140) but no 1-120 construct, so 1-120 may be a misprint of 11-120; Host and purification are the general statement of the methods; also called WT PDZ1; source: E. coli BL21 (DE3), purified (Ni-NTA-agarose)
T1 sequence (looked up): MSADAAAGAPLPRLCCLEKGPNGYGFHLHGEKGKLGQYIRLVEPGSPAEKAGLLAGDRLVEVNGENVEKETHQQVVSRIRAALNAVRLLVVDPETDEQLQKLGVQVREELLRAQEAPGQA
Kind of assay: ITC; 25°C; 10 mM Hepes (pH 7.5), 10 mM NaCl, 0.5 mM EDTA, 0.5 mM beta-mercaptoethanol; 25 uM PDZ protein in the cell, NPT2A (200–250 uM) titrated in 19 injections of 2 ul. A general note: In ITC the heat of successive injections is recorded.

Another assay has as its target T2, NHERF1 PDZ1 E43D (1–120) (human, UniProt O14745 1-120, E43D).
T2 construct: the methods describe the mutants in PDZ1 (11-120), so 1-120 may be a misprint of 11-120; also called Glu43Asp; source: E. coli BL21 (DE3), purified (Ni-NTA-agarose)
T2 sequence (looked up): T1 sequence (looked up) with E43D
The description is as above.

For a further assay, the target named is T3, NHERF1 PDZ1 H27N (1–120) (human, UniProt O14745 1-120, H27N).
T3 construct: the methods describe the mutants in PDZ1 (11-120), so 1-120 may be a misprint of 11-120; also called His27Asn; source: E. coli BL21 (DE3), purified (Ni-NTA-agarose)
T3 sequence (looked up): T1 sequence (looked up) with H27N
The description is as above.

Assay [2] concerns the target T4, NHERF1 PDZ1 H27N/E43D (1–120) (human, UniProt O14745 1-120, H27N | E43D).
T4 construct: The double mutant's plasmid is not described in the methods; also called His27Asn/Glu43Asp PDZ1; source: E. coli BL21 (DE3), purified (Ni-NTA-agarose)
T4 sequence (looked up): T1 sequence (looked up) with H27N, E43D
The assay is described as above.

Assay [3] addresses T5, NHERF1 PDZ1 (1–140) (human, UniProt O14745 1-140).
T5 construct: Na+/H+ Exchanger Regulatory Factor-1 (NHERF1, EBP50), human, PDZ1 construct, residues 1-140; Plasmid pET16-N1P1 provided by D. F. Mierke; also called WT PDZ1 (1–140); pET16-N1P1; source: E. coli BL21 (DE3), purified (Ni-NTA-agarose)
T5 sequence (looked up): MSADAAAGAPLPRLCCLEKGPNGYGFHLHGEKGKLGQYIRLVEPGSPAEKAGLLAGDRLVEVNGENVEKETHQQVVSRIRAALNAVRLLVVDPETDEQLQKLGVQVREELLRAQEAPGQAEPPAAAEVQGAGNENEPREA
The assay can be described thus: fluorescence polarisation; as a1 but at pH 5.5; 0.5 uM labeled NPT2A peptide, WT PDZ1 (1–140).

For a further assay, the target named is T6, NHERF1 PDZ1 (11–120) (human, UniProt O14745 11-120).
T6 construct: Na+/H+ Exchanger Regulatory Factor-1 (NHERF1, EBP50), human, PDZ1 construct, residues 11-120; also called WT PDZ1 (11–120); source: E. coli BL21 (DE3), purified (Ni-NTA-agarose)
T6 sequence (looked up): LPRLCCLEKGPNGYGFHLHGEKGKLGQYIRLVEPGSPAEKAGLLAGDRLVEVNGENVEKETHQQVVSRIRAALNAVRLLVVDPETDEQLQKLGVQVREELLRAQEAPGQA
The assay can be described thus: fluorescence polarisation; solution phase direct binding, PDZ construct varied against 0.5 uM or 1 uM rhodamine-labeled NPT2A peptide; FP buffer (25 mM NaH2PO4, 10 mM NaCl, pH 7.4, 1 mM DTT, 0.1 mg/ml bovine IgG, 0.5 mM Thesit); 25°C; anisotropy fitted to a 1:1 complex.

The target in assay [4] is T5, NHERF1 PDZ1 (1–140). The assay is described as above.
Assay [5] has as its target T5, NHERF1 PDZ1 (1–140). Kind of assay: fluorescence polarisation; as a1 but at pH 6.0; 0.5 uM labeled NPT2A peptide, WT PDZ1 (1–140).

Residue numbers refer to the chain shown, from its start. Names and notes keep the numbering of the source. Where no end group is shown, it is not given here.

Usually EC50 stands for the concentration needed to bring the measured effect to its halfway point. The low end stands for a more potent agent, the high end for a less potent agent. For the molecule B1, the EC50 in assay [1] turned out to be 20 ± 10 µM.
Take B2: the half-maximal effective concentration (EC50) in assay [1] worked out at 11.7 ± 2 µM.
Usually Kd stands for a measure of binding affinity in units of concentration. One may read the stoichiometry N as a count of units in the complex or per binding partner. On to B3, for which the Kd with NHERF1 PDZ1 (1–120) amounted to 3.1 ± 0.3 µM; with NHERF1 PDZ1 E43D (1–120) it was 10.4 ± 0.8 µM; with NHERF1 PDZ1 H27N (1–120), 5.3 ± 0.5 µM; in [2] it was 17.9 ± 0.9 µM. The dH with NHERF1 PDZ1 (1–120) is -34.3 ± 3.35 kJ/mol; in the assay with NHERF1 PDZ1 E43D (1–120), -12.6 ± 1.26 kJ/mol; in the assay with NHERF1 PDZ1 H27N (1–120), -31.4 ± 2.93 kJ/mol; in assay [2] it was -24.3 ± 2.51 kJ/mol. Further, the “stoichiometry N” value with NHERF1 PDZ1 (1–120) was 0.92; in the assay with NHERF1 PDZ1 E43D (1–120), 0.6; with NHERF1 PDZ1 H27N (1–120) it was 0.61; in assay [2], 0.6.
For the molecule B4, the Kd worked out at 16.1 ± 3.3 µM in the assay with NHERF1 PDZ1 (1–140) [3], 5.5 ± 0.6 µM in the assay with NHERF1 PDZ1 (11–120), 1.7 ± 0.2 µM with NHERF1 PDZ1 (1–140) [4] and 8 ± 1.8 µM with NHERF1 PDZ1 (1–140) [5].
